Assay results taken from patent publication US10941182 (Amgen, dated 2021).
Non-standard residues stand in square brackets, D forms with d. Primed or numbered codes have the meaning given here. No end group written: not given here. Oic = O=C(O)[C@@H]1C[C@@H]2CCCC[C@@H]2N1; Phe(4-Cl) = N[C@@H](Cc1ccc(Cl)cc1)C(=O)O; dPhe(4-Cl) = N[C@H](Cc1ccc(Cl)cc1)C(=O)O; NMeR = CN[C@@H](CCCNC(=N)N)C(=O)O; hArg = N=C(N)NCCCC[C@H](N)C(=O)O; β3hR = N=C(N)NCCC[C@H](N)CC(=O)O; Cha = N[C@@H](CC1CCCCC1)C(=O)O; β3hQ = NC(=O)CC[C@H](N)CC(=O)O; β3hN = NC(=O)C[C@H](N)CC(=O)O; β3hL = CC(C)C[C@H](N)CC(=O)O; NMeV = CN[C@H](C(=O)O)C(C)C; β3hK = NCCCC[C@H](N)CC(=O)O; β3hP = O=C(O)C[C@@H]1CCCN1; code O = not defined here; β3hS = N[C@@H](CO)CC(=O)O; Nle = CCCC[C@H](N)C(=O)O; Orn = NCCC[C@H](N)C(=O)O; Pip′ = not defined here; BPhe = β-phenylalanine; Aib = CC(C)(N)C(=O)O; βAla = NCCC(=O)O; Sar = CNCC(=O)O

T1: rat APJ receptor (rat, UniProt Q9JHG3 1-377)
T1 sequence (looked up): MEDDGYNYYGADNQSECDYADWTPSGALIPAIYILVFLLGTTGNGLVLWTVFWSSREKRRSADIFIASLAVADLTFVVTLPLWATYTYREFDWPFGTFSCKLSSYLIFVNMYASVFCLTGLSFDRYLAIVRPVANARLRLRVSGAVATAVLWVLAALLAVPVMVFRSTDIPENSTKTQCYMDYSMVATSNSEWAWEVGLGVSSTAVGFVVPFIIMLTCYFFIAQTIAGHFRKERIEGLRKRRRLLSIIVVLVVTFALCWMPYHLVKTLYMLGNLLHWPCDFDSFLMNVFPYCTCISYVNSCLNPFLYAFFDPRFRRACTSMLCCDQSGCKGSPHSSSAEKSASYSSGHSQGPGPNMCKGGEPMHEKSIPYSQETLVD

T2: human APJ receptor (human, UniProt P35414 1-380)
T2 sequence (looked up): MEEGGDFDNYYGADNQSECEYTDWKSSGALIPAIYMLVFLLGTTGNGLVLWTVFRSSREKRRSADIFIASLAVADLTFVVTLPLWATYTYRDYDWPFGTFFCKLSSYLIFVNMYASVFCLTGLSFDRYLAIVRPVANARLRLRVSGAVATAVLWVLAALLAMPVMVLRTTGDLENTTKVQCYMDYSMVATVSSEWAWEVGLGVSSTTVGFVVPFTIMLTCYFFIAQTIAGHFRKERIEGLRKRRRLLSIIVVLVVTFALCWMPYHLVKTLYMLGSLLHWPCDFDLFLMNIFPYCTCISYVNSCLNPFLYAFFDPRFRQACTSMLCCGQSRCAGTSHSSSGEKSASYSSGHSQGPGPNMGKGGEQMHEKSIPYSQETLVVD


Each binder was assayed against T1, rat APJ receptor (assay: cell-based or functional assay).

Point of comparison: [Orn]F[hArg][hArg][β3hQ][hArg]P[hArg][Cha]SHKG[Oic][Nle]P[Phe(4-Cl)] [apelin polypeptide SEQ ID NO: 690], “EC50 Rat APJ Receptor” value 183 pM. Against it:
- [Orn]F[hArg][hArg]Q[hArg][Aib][hArg][Cha]SHKG[Oic][Nle]P[Phe(4-Cl)] [apelin polypeptide SEQ ID NO: 677] — 19-fold higher, 3480 pM
- [Orn]F[hArg][hArg]Q[hArg]P[hArg][Cha][βAla]HKG[Oic][Nle]P[Phe(4-Cl)] [apelin polypeptide SEQ ID NO: 699] — 3.3-fold higher, 603 pM
- [Orn]F[hArg][hArg]Q[hArg][Sar][hArg][Cha]SHKG[Oic][Nle]P[Phe(4-Cl)] [apelin polypeptide SEQ ID NO: 676] — 4.6-fold higher, 840 pM
- [code O]F[hArg][NMeR]Q[NMeR]P[NMeR][Cha]SHKG[Oic][Nle]P[Phe(4-Cl)] (reading uncertain) [apelin polypeptide SEQ ID NO: 673] — 7.3-fold higher, 1340 pM
- [Orn]F[hArg][hArg]Q[hArg][β3hP][hArg][Cha]SHKG[Oic][Nle]P[Phe(4-Cl)] [apelin polypeptide SEQ ID NO: 694] — 3.3-fold higher, 602 pM
- [Orn]F[hArg][hArg]Q[hArg]P[hArg][Cha]SHK[Sar][Oic][Nle]P[Phe(4-Cl)] [apelin polypeptide SEQ ID NO: 680] — 2.2-fold higher, 401 pM
- [Orn]F[hArg][hArg]Q[hArg]P[hArg][Cha]S[βAla]KG[Oic][Nle]P[Phe(4-Cl)] [apelin polypeptide SEQ ID NO: 700] — 17-fold higher, 3110 pM
- [Orn][BPhe][hArg][hArg]Q[hArg]P[hArg][Cha]SHKG[Oic][Nle]P[Phe(4-Cl)] [apelin polypeptide SEQ ID NO: 687] — within 1.5-fold, 175 pM
- [Orn]F[hArg][hArg]Q[hArg]P[hArg][Cha]SHK[Aib][Oic][Nle]P[Phe(4-Cl)] [apelin polypeptide SEQ ID NO: 681] — 7.1-fold higher, 1300 pM
- [Orn]F[hArg][hArg]Q[hArg]P[hArg][Cha]SH[β3hK]G[Oic][Nle]P[Phe(4-Cl)] [apelin polypeptide SEQ ID NO: 701] — 4.8-fold higher, 879 pM
- [Orn]F[hArg][hArg]Q[hArg]P[hArg][Cha][Sar]HKG[Oic][Nle]P[Phe(4-Cl)] [apelin polypeptide SEQ ID NO: 678] — 12-fold higher, 2110 pM
- [Orn]F[hArg][hArg]Q[hArg]P[hArg][Cha][β3hS]HKG[Oic][Nle]P[Phe(4-Cl)] [apelin polypeptide SEQ ID NO: 698] — 4-fold higher, 734 pM
- [Orn]F[hArg][hArg]Q[hArg]P[hArg][Cha]SHKG[Sar][Nle]P[Phe(4-Cl)] [apelin polypeptide SEQ ID NO: 683] — 5.1-fold higher, 926 pM
- [Orn]F[hArg][hArg]Q[β3hR]P[hArg][Cha]SHKG[Oic][Nle]P[Phe(4-Cl)] [apelin polypeptide SEQ ID NO: 693] — 2.8-fold higher, 505 pM
- [Orn]F[hArg][hArg]Q[hArg]P[hArg][Cha]S[NMeV]KG[Oic][Nle]P[Phe(4-Cl)] [apelin polypeptide SEQ ID NO: 679] — 180-fold higher, 33000 pM
- [Orn]F[hArg][hArg]Q[hArg]P[hArg][Cha]SHKG[Aib][Nle]P[Phe(4-Cl)] [apelin polypeptide SEQ ID NO: 682] — 44-fold higher, 7980 pM
- Ac-[hArg]Q[dR]P[NMeR][Cha]SHKG[Oic][Nle]P[dPhe(4-Cl)]-OH [apelin polypeptide SEQ ID NO: 24] — 730-fold higher, 134000 pM
- [Orn]F[hArg][hArg][β3hN][hArg]P[hArg][Cha]SHKG[Oic][Nle]P[Phe(4-Cl)] [apelin polypeptide SEQ ID NO: 691] — 2.3-fold higher, 424 pM
- Ac-[hArg]Q[dR]P[NMeR][Cha]SHKG[Oic][Nle]P[Phe(4-Cl)]-OH [apelin polypeptide SEQ ID NO: 23] — 180-fold higher, 32200 pM
- [Orn]F[hArg][hArg]Q[hArg]P[β3hR][Cha]SHKG[Oic][Nle]P[Phe(4-Cl)] [apelin polypeptide SEQ ID NO: 696] — 1.6-fold higher, 300 pM
- [Orn]F[hArg][hArg]Q[hArg]P[hArg][Cha]SHKG[Oic][Nle][Aib][Phe(4-Cl)] [apelin polypeptide SEQ ID NO: 685] — within 1.5-fold, 168 pM
- [Orn]F[hArg][β3hR]Q[hArg]P[hArg][Cha]SHKG[Oic][Nle]P[Phe(4-Cl)] [apelin polypeptide SEQ ID NO: 689] — 1.9-fold higher, 349 pM
- [Orn]F[hArg][hArg]Q[hArg][Pip′][hArg][Cha]SHKG[Oic][Nle]P[Phe(4-Cl)] [apelin polypeptide SEQ ID NO: 695] — 2.1-fold higher, 384 pM
- [Orn]F[hArg][hArg]Q[hArg]P[hArg][β3hL]SHKG[Oic][Nle]P[Phe(4-Cl)] [apelin polypeptide SEQ ID NO: 697] — 2.7-fold higher, 495 pM
- Q[hArg]P[NMeR][Cha]SHKG[Oic][Nle]P[Phe(4-Cl)] [apelin polypeptide SEQ ID NO: 675] — within 1.5-fold, 189 pM

These binders were tested against T2, human APJ receptor (assay: cell-based or functional assay).

Point of comparison: [Orn]F[hArg][hArg]Q[hArg]P[hArg][Cha][Sar]HKG[Oic][Nle]P[Phe(4-Cl)] [apelin polypeptide SEQ ID NO: 678], “EC50 Human APJ Receptor” value 664 pM. Against it:
- [Orn]F[hArg][hArg]Q[hArg][Aib][hArg][Cha]SHKG[Oic][Nle]P[Phe(4-Cl)] [apelin polypeptide SEQ ID NO: 677] — 5.3-fold higher, 3500 pM
- [Orn]F[hArg][hArg]Q[hArg]P[hArg][Cha][βAla]HKG[Oic][Nle]P[Phe(4-Cl)] [apelin polypeptide SEQ ID NO: 699] — 1.5-fold lower, 440 pM
- [Orn]F[hArg][hArg]Q[hArg][Sar][hArg][Cha]SHKG[Oic][Nle]P[Phe(4-Cl)] [apelin polypeptide SEQ ID NO: 676] — within 1.5-fold, 762 pM
- [code O]F[hArg][NMeR]Q[NMeR]P[NMeR][Cha]SHKG[Oic][Nle]P[Phe(4-Cl)] (reading uncertain) [apelin polypeptide SEQ ID NO: 673] — 2-fold higher, 1340 pM
- [Orn]F[hArg][hArg]Q[hArg][β3hP][hArg][Cha]SHKG[Oic][Nle]P[Phe(4-Cl)] [apelin polypeptide SEQ ID NO: 694] — within 1.5-fold, 458 pM
- [Orn]F[hArg][hArg]Q[hArg]P[hArg][Cha]SHK[Sar][Oic][Nle]P[Phe(4-Cl)] [apelin polypeptide SEQ ID NO: 680] — 5.7-fold lower, 116 pM
- [Orn]F[hArg][hArg]Q[hArg]P[hArg][Cha]S[βAla]KG[Oic][Nle]P[Phe(4-Cl)] [apelin polypeptide SEQ ID NO: 700] — within 1.5-fold, 949 pM
- [Orn][BPhe][hArg][hArg]Q[hArg]P[hArg][Cha]SHKG[Oic][Nle]P[Phe(4-Cl)] [apelin polypeptide SEQ ID NO: 687] — 7.2-fold lower, 91.8 pM
- [Orn]F[hArg][hArg]Q[hArg]P[hArg][Cha]SHK[Aib][Oic][Nle]P[Phe(4-Cl)] [apelin polypeptide SEQ ID NO: 681] — within 1.5-fold, 723 pM
- [Orn]F[hArg][hArg]Q[hArg]P[hArg][Cha]SH[β3hK]G[Oic][Nle]P[Phe(4-Cl)] [apelin polypeptide SEQ ID NO: 701] — 2.1-fold lower, 316 pM
- [Orn]F[hArg][hArg]Q[hArg]P[hArg][Cha][β3hS]HKG[Oic][Nle]P[Phe(4-Cl)] [apelin polypeptide SEQ ID NO: 698] — within 1.5-fold, 539 pM
- [Orn]F[hArg][hArg]Q[hArg]P[hArg][Cha]SHKG[Sar][Nle]P[Phe(4-Cl)] [apelin polypeptide SEQ ID NO: 683] — 1.8-fold lower, 379 pM
- [Orn]F[hArg][hArg]Q[β3hR]P[hArg][Cha]SHKG[Oic][Nle]P[Phe(4-Cl)] [apelin polypeptide SEQ ID NO: 693] — 2.9-fold lower, 229 pM
- [Orn]F[hArg][hArg]Q[hArg]P[hArg][Cha]S[NMeV]KG[Oic][Nle]P[Phe(4-Cl)] [apelin polypeptide SEQ ID NO: 679] — 5.5-fold higher, 3630 pM
- [Orn]F[hArg][hArg]Q[hArg]P[hArg][Cha]SHKG[Aib][Nle]P[Phe(4-Cl)] [apelin polypeptide SEQ ID NO: 682] — 2.3-fold higher, 1530 pM
- Ac-[hArg]Q[dR]P[NMeR][Cha]SHKG[Oic][Nle]P[dPhe(4-Cl)]-OH [apelin polypeptide SEQ ID NO: 24] — 12-fold higher, 7870 pM
- [Orn]F[hArg][hArg][β3hQ][hArg]P[hArg][Cha]SHKG[Oic][Nle]P[Phe(4-Cl)] [apelin polypeptide SEQ ID NO: 690] — 6-fold lower, 111 pM
- [Orn]F[hArg][hArg][β3hN][hArg]P[hArg][Cha]SHKG[Oic][Nle]P[Phe(4-Cl)] [apelin polypeptide SEQ ID NO: 691] — within 1.5-fold, 453 pM
- Ac-[hArg]Q[dR]P[NMeR][Cha]SHKG[Oic][Nle]P[Phe(4-Cl)]-OH [apelin polypeptide SEQ ID NO: 23] — 1.7-fold lower, 384 pM
- [Orn]F[hArg][hArg]Q[hArg]P[β3hR][Cha]SHKG[Oic][Nle]P[Phe(4-Cl)] [apelin polypeptide SEQ ID NO: 696] — 2.5-fold lower, 261 pM
- [Orn]F[hArg][hArg]Q[hArg]P[hArg][Cha]SHKG[Oic][Nle][Aib][Phe(4-Cl)] [apelin polypeptide SEQ ID NO: 685] — 7-fold lower, 94.6 pM
- [Orn]F[hArg][β3hR]Q[hArg]P[hArg][Cha]SHKG[Oic][Nle]P[Phe(4-Cl)] [apelin polypeptide SEQ ID NO: 689] — 5.8-fold lower, 114 pM
- [Orn]F[hArg][hArg]Q[hArg][Pip′][hArg][Cha]SHKG[Oic][Nle]P[Phe(4-Cl)] [apelin polypeptide SEQ ID NO: 695] — 2.1-fold lower, 313 pM
- [Orn]F[hArg][hArg]Q[hArg]P[hArg][β3hL]SHKG[Oic][Nle]P[Phe(4-Cl)] [apelin polypeptide SEQ ID NO: 697] — 3-fold lower, 225 pM
- Q[hArg]P[NMeR][Cha]SHKG[Oic][Nle]P[Phe(4-Cl)] [apelin polypeptide SEQ ID NO: 675] — 4.2-fold lower, 159 pM
